The data set can be described thus: In vivo PK in PC-3 CDX model: LC-MS quantitation of MMAE and BT5528 in plasma and tumour (Example 4). Also on record: species or system Mus Musculus. To be noted: single i.v. dose of BT5528. On the procedure:
The objective of the research is to evaluate the in vivo PK/PD of test agents in treatment of PC-3 CDX model in Balb/c nude mice.
Each mouse was inoculated subcutaneously at the right flank with PC-3 tumor cells (10×10^6) in 0.2 mL of PBS for tumor development. The animals were randomized and dosed when the average tumor volume reached approximately 440 mm^3 for the PK/PD study. The test article administration and time points in each group were shown in the experimental design table.
Mice were randomly grouped based on tumor volume and dosed as experimental design. Plasma, serum, muscle and tumors were collected at 1 h, 2 h, 8 h, 24 h, 48 h, 72 h and 96 h post dosing.
Two protease inhibitor products were used: Complete™ mini EDTA-free protease inhibitor cocktail tablets and AEBSF (200 mM, prepared by dissolving 100 mg in water (2086 μL)). The AEBSF solution was stored at −20° C. when not in use. For the dilution of plasma, a solution (inhibitor solution A) was prepared by dissolving 12 Complete™ tablets in 50/50 methanol/water (12 mL) and adding 200 mM AEBSF (12 μL). […]
Samples, standards, QCs and blanks were transferred (10 μL diluted plasma, 30 μL tissue homogenate) to a 96-well plate on ice. […] The plate was mixed briefly and sealed ready for injection onto the LC-MS/MS. […]

The record followed here is US20220184222A1, “BICYCLE TOXIN CONJUGATES AND USES THEREOF” (BicycleTx Limited, priority 2019, published 2022).

“Also recorded” adds a separate entry of the source. Starred links: 1 amine or outer side, 2 acyl side, 3 side chain; linkers in the order of their positions; H or OH if unused. Non-standard residues stand in square brackets, D forms with d. Residues, ends and D or L forms follow the SMILES beside them. *: point of attachment. Dolaproine = CO[C@@H]([C@@H]1CCCN1)[C@@H](C)C(=O)O; Dil = CC[C@H](C)[C@H](NC)[C@@H](CC(=O)O)OC; PABC = O=C(OCc1ccc(N[*:1])cc1)[*:2]; X1 = O=C(CCCC(=O)*)ON1C(=O)CCC1=O; X2 = C[C@@H](N*)[C@@H](O)c1ccccc1; Cit = NC(=O)NCCC[C@H](N)C(=O)O; NMeV = CN[C@H](C(=O)O)C(C)C

For `CC[C@H](C)[C@@H]([C@@H](CC(=O)N1CCC[C@H]1[C@H](OC)[C@@H](C)C(=O)N[C@H](C)[C@@H](O)c1ccccc1)OC)N(C)C(=O)[C@@H](NC(=O)[C@H](C(C)C)N(C)C(=O)OCc1ccc(NC(=O)[C@H](CCCNC(N)=O)NC(=O)[C@@H](NC(=O)CCCC(=O)ON2C(=O)CCC2=O)C(C)C)cc1)C(C)C` [BT5528] (X1-V[Cit][PABC][NMeV]V[Dil][Dolaproine]-X2), the “MMAE concentrations in tumour” value is reported as “accumulation of MMAE in tumor tissue; also recorded: high MMAE concentrations in tumour, which is stable from 2h to >48h”; the “exposure of BT5528 and MMAE in plasma” value was “short systemic exposure; also recorded: transient exposure of both BT5528 and MMAE in plasma”.
